Experimental data: US20140271651A1 (AbbVie / Abbott, published 2014)

T1: GP73-hFc (human GP73 amino acids 63 to 400 fused at the C-terminus to human IgG1 Fc) (human)
T1 construct: Expressed in HEK293F, CHO or HepG2 cells; the host is named under assay; also called HEK expressed GP73-hFc; CHO expressed GP73-hFc
T1 chain: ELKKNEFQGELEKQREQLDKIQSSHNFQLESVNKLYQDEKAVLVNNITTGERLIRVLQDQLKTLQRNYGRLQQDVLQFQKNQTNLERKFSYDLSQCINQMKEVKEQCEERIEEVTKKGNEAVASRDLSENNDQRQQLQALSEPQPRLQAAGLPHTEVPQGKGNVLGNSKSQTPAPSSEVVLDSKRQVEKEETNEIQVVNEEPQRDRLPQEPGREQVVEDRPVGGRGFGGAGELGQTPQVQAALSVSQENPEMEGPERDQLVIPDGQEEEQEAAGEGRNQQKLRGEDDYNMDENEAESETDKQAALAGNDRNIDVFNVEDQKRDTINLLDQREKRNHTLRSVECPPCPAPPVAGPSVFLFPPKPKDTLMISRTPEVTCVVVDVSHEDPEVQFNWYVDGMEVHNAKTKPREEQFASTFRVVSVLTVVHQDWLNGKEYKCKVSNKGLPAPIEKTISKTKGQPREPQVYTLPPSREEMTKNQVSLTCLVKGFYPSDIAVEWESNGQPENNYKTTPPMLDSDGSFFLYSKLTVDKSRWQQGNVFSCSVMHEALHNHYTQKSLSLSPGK


Columns and labels:
bovine serum albumin [1] = biological target: T2, bovine serum albumin (bovine, UniProt P02769 25-607); assay: EIA, supernatant 1:25 captured on sheep anti-mouse IgG Fc, BSA in place of antigen
T2 construct: also called BSA
T2 sequence (P02769 25-607 limits assumed): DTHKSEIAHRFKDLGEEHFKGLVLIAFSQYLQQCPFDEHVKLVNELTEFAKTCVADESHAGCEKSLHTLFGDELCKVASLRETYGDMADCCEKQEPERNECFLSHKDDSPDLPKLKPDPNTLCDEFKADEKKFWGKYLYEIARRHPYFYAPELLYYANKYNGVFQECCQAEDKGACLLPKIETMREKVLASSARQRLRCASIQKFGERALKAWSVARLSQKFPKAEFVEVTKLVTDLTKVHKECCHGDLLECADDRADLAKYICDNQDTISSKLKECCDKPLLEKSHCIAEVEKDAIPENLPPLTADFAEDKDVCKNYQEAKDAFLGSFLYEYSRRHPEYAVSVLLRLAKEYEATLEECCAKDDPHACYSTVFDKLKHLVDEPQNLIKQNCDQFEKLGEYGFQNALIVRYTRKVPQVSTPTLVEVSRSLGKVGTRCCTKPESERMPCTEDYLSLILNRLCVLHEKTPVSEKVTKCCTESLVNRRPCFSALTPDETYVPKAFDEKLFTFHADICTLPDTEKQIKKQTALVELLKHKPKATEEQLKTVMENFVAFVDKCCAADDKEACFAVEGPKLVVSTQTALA
Procedure: (§1) Cell supernatant samples were analyzed for anti-GP73 antibodies by EIA. Sheep anti-mouse IgG Fc (Jackson Immunoresearch) was coated on 96 well micro-titer EIA plates at 1 μg/mL. After the capture reagent was coated on the solid phase, it was removed and the plates were blocked using a BSA/PBS block solution. The wells were washed with distilled water and cell supernatants were added to the blocked plates and allowed to incubate at room temperature for at least one hour. A mouse monoclonal antibody 14H4-23 (Drexel University) was used a positive control. The anti-mouse IgG Fc captured the anti-GP73 mouse antibody from the supernatant. Following the incubation, the supernatants were washed off using distilled water. An irrelevant mouse-human chimeric antibody was added to all wells and incubated at room temperature for 30 min to block any captured mouse antibodies that react with the human IgG Fc fusion protein linked to the GP73 antigen. The wells were washed with distilled water and GP73-hFc was added to the plates at 200 ng/mL and incubated for 30 min. Following this incubation, the antigen was washed from the plates using distilled water. Biotin labeled goat anti-GP73 was added to the plates at 200 ng/mL and incubated for 30 min at room temperature. The plates were washed and streptavidin-HRPO (Jackson Immunoresearch) (diluted to approximately 200 ng/mL) was added to the plates and allowed to incubate for 30 min. The plates were washed with distilled water and OPD substrate was used as the chromagen to generate signal. Plates were read at 492 nm and the results were analyzed.
(§2) Positive clones were expanded to 24 well plates in IMDM supplemented with 10% FBS and HT supplement. Following 5-14 days growth, the 24 well cultures were evaluated by EIA in the same manner as previously described, except the supernatant samples were titrated against GP73-hFc and BSA to eliminate non-specific protein binders. Once again the clones generating signal at least 3 times greater than background were considered positive and selected for further evaluation.

[2] = biological target: T1, GP73-hFc (human GP73 amino acids 63 to …); assay: EIA, supernatant 1:25 captured on sheep anti-mouse IgG Fc, GP73-hFc, biotin goat anti-GP73
Procedure: as §1, §2

bovine serum albumin [3] = biological target: T2, bovine serum albumin; assay: sandwich EIA, rabbit anti-GP73 coated 1 ug/mL, BSA background, supernatant 1:125, HRP goat anti-mouse IgG Fc
Procedure: as §1
(§3) The 24 well cultures were then evaluated by EIA for their ability to form a sandwich with the rabbit anti-GP73 used as a capture reagent coated directly on the solid phase. The same EIA protocol previously described was used, except rabbit anti-GP73 antibody was coated at 1 μg/mL, the GP73-hFc was tested at 200 ng/mL, and a HRP labeled goat anti-mouse IgG FC antibody was used as the conjugate reagent to generate signal.

[4] = biological target: T1, GP73-hFc (human GP73 amino acids 63 to …); assay: sandwich EIA, rabbit anti-GP73 coated 1 ug/mL, GP73-hFc 200 ng/mL, supernatant 1:125, HRP goat anti-mouse IgG Fc
Procedure: as §1, §3

[5] = biological target: T1, GP73-hFc (human GP73 amino acids 63 to …); assay: EIA, supernatant mAb captured on sheep anti-mouse IgG Fc, GP73-hFc 200 ng/mL, biotin goat anti-GP73/streptavidin-HRPO; background 0.06
Procedure: as §1

| BSA Background OD (A492) (bovine serum albumin [1]) | GP73-hFc OD (A492) [2] | BSA Background OD (A492) (bovine serum albumin [3]) | GP73-hFc OD (A492) [4] | OD (A492) [5] | Binder |
| --- | --- | --- | --- | --- | --- |
| 0.1 OD (A492) | 2.1 OD (A492) | 0.1 OD (A492) | 1.6 OD (A492) | 1.79 OD (A492) | anti-GP73 monoclonal antibody 1B-4971 (antibody, V domains shown, Biotin labelled in some assays; also called mAb 1B-4971; 1B-4971-Bt) VH: QVQLQQSGPALVKPGASVKMSCKASGYTFTNYVIHWVKQKPGQGLERIGYIWPYNDGTKFNEKFKGKATLTSDKSSSTAYMELSSLTSEDSAVYYCSSQQLAYWGQGTTLTVSS VL: not shown |
| 0.09 OD (A492) | 1.51 OD (A492) | 0.12 OD (A492) | 0.76 OD (A492) | 1.46 OD (A492) | anti-GP73 monoclonal antibody 1B-3440 (antibody, V domains shown, Biotin labelled in some assays; also called mAb 1B-3440; 1B-3440-Bt) VH: EVQLVETGGGLVQPKGSLKLSCAASGFTFNTNAMNWVRQAPGKGLEWVARIRTKRYNYTTFYADSVKDRFTISRDDSQSMLFLQMNNLKTEDTAMYYCVTGGTGTFDYWGQGTTLTVSS VL: EIVLTQSPTTMPASPGEKVTFTCSASSGISSNYLHWYQLKPGFSPKLLIYRTSNLASGVPARFSGGGSGTSYSLTIGTMEAEDVATYYCQQGFSIPLTFGAGTKLELKR |
| 0.06 OD (A492) | 1.61 OD (A492) | 0.1 OD (A492) | 1.41 OD (A492) | 1.44 OD (A492) | anti-GP73 monoclonal antibody 1B-4863 (antibody, V domains shown, Biotin labelled in some assays; also called mAb 1B-4863; 1B-4863-Bt) VH: QVQLKESGPGLVAPSQSLSITCTVSGFSLTSYGVHWVRQSPGKGLEWLGVIWTGGSTNYNSALMSRLSISKDNSESQVFLKVNSLQTDDTGMYYCARDPGTDYFDYWGQGTTLTVSS VL: DIVMTQSHKFMSTSIGDRVSISCKASQDVSIDVSWYQQKPGQSPTLLIYSASYRYIGVPDRFTGSGSGTAFTFTISSVQAEDLAIYYCQQHFTTPLTFGAGTKLELKR |
